Reference: patent US20020037514A1, “Identification of nuclear receptor-dependent coregulator recruitment” (priority 2000, published 2002)

Legend:
[1] = target: T1, RARα-V5/RXRγ/DR-5 ternary complex (Homo sapiens, UniProt P10276); assay: LXD peptide competition of ATRA-induced co-activator recruitment (Example 7, FIG. 8A); type: biochemical; settings: DR-5 RARE; for effect of peptide on ATRA-induced recruitment of SRC-1: SRC-1 peptides at 40 μl (so in the source); for effect of peptide on ATRA-induced recruitment of ACTR: ACTR peptides at 20 μl (so in the source)
T1 construct: the nuclear receptor subunits used in the invention are full length nuclear receptor monomer subunits; expressed in transfected cells; host or cells: CV-1 (green monkey kidney), whole-cell lysate
T1 sequence (P10276 1-462): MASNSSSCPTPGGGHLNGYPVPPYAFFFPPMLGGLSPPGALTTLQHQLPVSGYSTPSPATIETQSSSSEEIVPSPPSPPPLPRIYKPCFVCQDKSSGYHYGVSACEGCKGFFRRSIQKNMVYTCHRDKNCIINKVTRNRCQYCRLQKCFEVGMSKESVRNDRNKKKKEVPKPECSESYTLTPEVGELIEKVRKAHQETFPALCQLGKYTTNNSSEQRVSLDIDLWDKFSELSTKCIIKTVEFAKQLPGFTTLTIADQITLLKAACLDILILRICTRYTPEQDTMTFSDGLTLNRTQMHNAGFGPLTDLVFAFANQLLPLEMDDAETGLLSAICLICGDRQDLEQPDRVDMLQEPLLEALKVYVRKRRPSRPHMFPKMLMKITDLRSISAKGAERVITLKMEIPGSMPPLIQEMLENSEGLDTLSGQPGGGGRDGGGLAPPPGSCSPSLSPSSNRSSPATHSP
T1 sequence (P28705 1-463 partner): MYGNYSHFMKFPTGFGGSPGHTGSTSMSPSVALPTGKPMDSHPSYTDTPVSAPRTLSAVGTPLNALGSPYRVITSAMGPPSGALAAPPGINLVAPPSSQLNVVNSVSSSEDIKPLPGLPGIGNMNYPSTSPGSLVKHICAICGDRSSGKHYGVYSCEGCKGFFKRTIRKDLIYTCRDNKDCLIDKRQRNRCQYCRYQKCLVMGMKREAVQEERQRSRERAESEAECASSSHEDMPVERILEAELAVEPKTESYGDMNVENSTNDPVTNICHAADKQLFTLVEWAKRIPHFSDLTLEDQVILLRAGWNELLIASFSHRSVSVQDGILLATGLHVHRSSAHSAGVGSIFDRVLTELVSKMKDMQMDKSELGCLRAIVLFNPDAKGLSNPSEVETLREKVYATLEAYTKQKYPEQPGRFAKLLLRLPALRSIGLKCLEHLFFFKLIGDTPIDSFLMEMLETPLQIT
Excerpt: (§1) Nolte, R. T. et al., Nature 395:137-143 (1998). We addressed the importance of each of the three LXDs in mediating co-activator-receptor interaction using synthetic peptides comprising the LXD1, LXD2 or LXD3 amino acid sequences as competitors with SRC-1 in the DNA modified immunoprecipitation methods of the present invention. These peptides have the following amino acid sequences (with the characteristic LXXLL motif shown in bold):
(§2) Transfection, DR-5 oligonucleotide treatment, ligand treatment, immunoprecipitation and detection of associated co-factors were performed essentially as shown in the previous Examples. CV-1 cells were transfected with plasmids expressing either RARα/RXRγ-V5 or with RARγ/RXRα-V5. Synthetic LXD peptides were added to the cell lysate before the addition of retinoids at a concentration of 20 (ACTR) and 40 (SRC-1) […].

[2] = target: T2, RARγ-V5/RXRα heterodimer (Homo sapiens, UniProt P13631); assay: DNA modified immunoprecipitation, co-repressor N-CoR recruitment (Example 6); type: biochemical; settings: ligand 1 μM
Method: Immunoprecipitation with mouse anti-V5 antibody and Western analysis were conducted as set forth above.

[3] = target: RARα/RXR heterodimer bound to a DR-5 retinoic acid receptor response element (Example 9) (human) (UniProt P10276); assay: DNA dependent co-IP with DR-5 RARE, Western anti-SRC-1; 1 uM ligand AGN194365
[4] = target: RARα/RXR heterodimer bound to a DR-5 retinoic acid receptor response element (Example 9) (human) (UniProt P10276); assay: DNA dependent co-IP with DR-5 RARE, Western anti-SRC-1; 1 uM ligand AGN194794, 196382 or 196412 (which ligand gives which end is not told)
[5] = target: RARα/RXR heterodimer bound to a DR-5 retinoic acid receptor response element (Example 9) (human) (UniProt P10276); assay: DNA dependent co-IP with DR-5 RARE, Western anti-ACTR; 1 uM ligand AGN196412
[6] = target: RARβ-V5/RXRα heterodimer (human) (UniProt P10826); assay: anti-V5 co-IP from CV-1 lysate, Western anti-SRC-1; 1 uM AGN 194204 with DR-5 RARE against 1 uM TTNPB
Sequence of RARβ-V5/RXRα heterodimer (human) (P10826 other isoform, or with tags, fused parts or gaps): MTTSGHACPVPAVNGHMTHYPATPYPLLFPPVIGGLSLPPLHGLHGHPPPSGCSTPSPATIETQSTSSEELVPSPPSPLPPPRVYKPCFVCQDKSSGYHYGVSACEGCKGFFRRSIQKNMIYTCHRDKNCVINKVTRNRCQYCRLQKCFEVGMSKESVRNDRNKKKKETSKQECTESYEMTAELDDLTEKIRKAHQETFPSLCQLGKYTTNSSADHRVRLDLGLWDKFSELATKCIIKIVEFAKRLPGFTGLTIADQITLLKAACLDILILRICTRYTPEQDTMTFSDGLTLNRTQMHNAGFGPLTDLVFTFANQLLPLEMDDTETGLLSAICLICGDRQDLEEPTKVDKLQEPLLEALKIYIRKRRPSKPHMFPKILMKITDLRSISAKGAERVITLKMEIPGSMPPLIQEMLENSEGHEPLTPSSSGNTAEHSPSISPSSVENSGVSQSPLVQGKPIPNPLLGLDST

[7] = target: T3, RARγ/RXRα heterodimer (Homo sapiens, UniProt P13631); assay: LXD peptide competition of ATRA-induced co-activator recruitment (Example 7, FIG. 8B); type: biochemical; settings: DR-5 RARE, compared with the RARα/RXRγ experiment
T3 sequence (P13631 1-454): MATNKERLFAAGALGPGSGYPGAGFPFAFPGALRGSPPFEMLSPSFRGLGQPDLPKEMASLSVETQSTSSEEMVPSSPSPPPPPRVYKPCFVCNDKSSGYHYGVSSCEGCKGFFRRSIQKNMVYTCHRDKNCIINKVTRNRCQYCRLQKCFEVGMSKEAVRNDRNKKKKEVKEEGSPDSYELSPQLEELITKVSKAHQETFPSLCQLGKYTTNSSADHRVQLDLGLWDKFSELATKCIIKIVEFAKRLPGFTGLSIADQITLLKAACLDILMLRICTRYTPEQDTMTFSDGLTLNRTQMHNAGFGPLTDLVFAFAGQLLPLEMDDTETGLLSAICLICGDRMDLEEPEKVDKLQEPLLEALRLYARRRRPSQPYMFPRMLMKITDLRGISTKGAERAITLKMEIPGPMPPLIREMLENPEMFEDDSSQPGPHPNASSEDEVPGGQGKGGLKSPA
T3 sequence (P19793 1-462 partner): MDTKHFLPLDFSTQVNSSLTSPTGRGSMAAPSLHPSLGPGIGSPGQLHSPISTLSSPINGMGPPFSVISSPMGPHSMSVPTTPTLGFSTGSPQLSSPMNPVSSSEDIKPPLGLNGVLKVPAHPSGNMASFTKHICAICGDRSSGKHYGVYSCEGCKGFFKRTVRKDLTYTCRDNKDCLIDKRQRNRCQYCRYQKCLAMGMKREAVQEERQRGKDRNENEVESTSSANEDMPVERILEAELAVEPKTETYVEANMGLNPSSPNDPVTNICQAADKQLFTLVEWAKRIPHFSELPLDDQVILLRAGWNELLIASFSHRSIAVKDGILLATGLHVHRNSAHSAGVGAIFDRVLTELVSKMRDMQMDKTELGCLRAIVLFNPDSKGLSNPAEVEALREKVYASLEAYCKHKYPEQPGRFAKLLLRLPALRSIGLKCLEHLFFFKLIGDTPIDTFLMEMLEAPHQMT
Excerpt: as §1, §2

[8] = target: T2, RARγ-V5/RXRα heterodimer; assay: anti-V5 co-IP from CV-1 lysate, Western anti-N-CoR; DR-5 RARE, 1 uM ligand

Q: “KESKDHQLLRYLLDKDEKDLRS (Nuclear co-activator LXD-containing peptide) [SRC-1 LXD3]” was tested. Which “effect of peptide on ATRA-induced recruitment of SRC-1” value [1] did it give?
A: Its value is “completely abolished”.

Q: “LESKGHKKLLQLLTCSSDDRGH (Nuclear co-activator LXD-containing peptide) [ACTR LXD1]” was tested. Which “effect of peptide on ATRA-induced recruitment of ACTR” value [1] did it give?
A: Its value is “abolished”.

Q: Cc1ccc(C2CCC(C)(C)c3ccc(C#Cc4ccc(C(=O)O)cc4)cc32)cc1 (centres unmarked) [AGN 193109] was tested. Which “N-CoR recruitment compared to AGN 193840” value ([2]; with DR-5 RARE) did it give?
A: The value was “approximately two-fold increase”.

Q: And the N-CoR recruitment ([2]; with DR-5 RARE 0.5 μg/ml)?
A: Its N-CoR recruitment is “led to N-COR recruitment”.

Q: And the N-CoR recruitment ([2]; with G-5-G DNA element instead of DR-5 RARE)?
A: The N-CoR recruitment was “failed to result in the detection of co-repressor”.

Q: Which % recruitment compared to TTNPB [3] does the source give for “nuclear receptor co-activator SRC-1, endogenously expressed by CV-1 cells (other; other documents disagree on this pair)” here?
A: The % recruitment compared to TTNPB was 65%.

Q: What about the % recruitment relative to TTNPB [4] of the same molecule?
A: Its % recruitment relative to TTNPB is 23 to 32%.

Q: Which % recruitment relative to TTNPB [5] does the source give for “nuclear receptor co-activator ACTR (other; other documents disagree on this pair)” here?
A: The % recruitment relative to TTNPB was 65%.

Q: Which N-CoR recruitment ([2]; with DR-5 RARE 0.5 μg/ml) does the source give for CC1(C)CCC(c2ccc(F)cc2)c2cc(C#Cc3ccc(C(=O)O)cc3)ccc21 (centres unmarked) [AGN 193840] here?
A: Its N-CoR recruitment is “led to N-COR recruitment”.

Q: For “nuclear receptor co-activator SRC-1, endogenously expressed by CV-1 cells”, which amount of SRC-1 detected compared to treatment with TTNPB [6] is on record?
A: The amount of SRC-1 detected compared to treatment with TTNPB was 30%.

Q: Which results are given for “KYSQTSHKLVQLLTTTAEQQLR (Nuclear co-activator LXD-containing peptide) [SRC-1 LXD1]”?
A: effect of peptide on ATRA-induced recruitment of SRC-1 [1]: no effect; amount of SRC-1 associated in the presence of peptide [7]: somewhat greater

Q: nuclear receptor co-repressor N-CoR was tested. Which fold increase in N-CoR recruitment with AGN 193109 compared to AGN 193840 [8] did it give?
A: The fold increase in N-CoR recruitment with AGN 193109 compared to AGN 193840 was 2 fold.

Q: Which “effect of peptide on ATRA-induced recruitment of ACTR” value [1] does the source give for “LLQEKHRTLHKLLQNGNSPAEV (LLQEKHRILHKLLQNGNSPAEV; Nuclear co-activator LXD-containing peptide) [ACTR LXD2]” here?
A: Its value is “abolished”.
